Source: paper PMC3948749, “Engineering of Pyranose Dehydrogenase for Increased Oxygen Reactivity” (PLoS ONE, 2014)
Changes are numbered by the printed parent chain. Names and notes keep the numbering of the source.

B1: AmPDH (Agaricus meleagris pyranose dehydrogenase, pdh1) (Macropsalliota meleagris) (protein)
chain: AITYQHPDDLPSGVDYDFIVAGGGTAGLVVASRLSENSNWKVLVIEAGPSNKDAFVTRVPGLASTLGAGSPIDWNYTTIPQDGLDGRSLDYPRAKILGGCSTHNGMVYTRGSKDDWNSWAGIIGDQGLGWDSILPAIKKAEKFTQDFTDQSVKGHIDPSVHGFDGKLSVSAAYSNISFNDLLFETTKELNAEFPFKLDMNDGKPIGLGWTQYTIDNHAERSSSATSYLESTGDNVHVLVNTLVTRVLSASGNGTDFRKVEFAVDANSPKKQLEAKKEVIVAGGVIASPQILMNSGIGERKVLQAVGIDTLIDNPSVGKNLSDQGATSVMFDTTLPSTDFDVDAALTEWTNSHTGPLARGARLNHLTFVRLPDDKLNGQDPSSGKNSPHIEFQFAQITPQVPTLGVPKQAPLPAANSYRLLLQLAVVNLYSISRGSISLSDNNPFTYPLIDLNMFKEDIDIAILREGIRSAGRMFSSKAFKNSVNKFVYPPADATSDEDLDAFLRSSTFSYVHGVGTLSMSPKGASWGVVNPDFKVKGTSGLRVVDASVIPHAPAAHTQLPVYAFAEYASALIAKSYN
notes: monomeric glycoprotein about 90 kDa, 64 kDa deglycosylated
B2: AmPDH (Agaricus meleagris pyranose dehydrogenase, pdh1) (Macropsalliota meleagris; H128Y) (protein)
chain: B1 chain with H103Y
notes: as for B1

Substrate: O=C1C(Cl)=CC(=Nc2ccc(O)cc2)C=C1Cl
Experiment: steady-state kinetics, DCIP reduction
Type: biochemical, Macropsalliota meleagris
Conditions: apparent, electron acceptor, 25 mM D-glucose as donor, pH 4, 30 °C
Text: steady-state kinetics, DCIP reduction on AmPDH (Agaricus meleagris pyranose dehydrogenase, pdh1)

Row | Protein | Km [µM] | kcat [s⁻¹] | kcat/Km [M⁻¹ s⁻¹]
1 | B1 | 140 ± 10 | 40.7 ± 4.1 | 291000
2 | B2 | 20 ± 10 | 2.8 ± 0.5 | 140000
